# Measurements published in US20220041715A1.
# Where two headings read alike, the source gives them in different places.
# Assays:
# HCoV-229E S1 (HCoV-229E) = HCoV-229E S1 (HCoV-229E) (UniProt P15423); test: ELISA
# HCoV-NL63 S1 (HCoV-NL63) = HCoV-NL63 S1 (HCoV-NL63) (UniProt Q6Q1S2); test: ELISA
# MERS CoV S1 (MERS CoV) = MERS CoV S1 (MERS CoV) (UniProt K9N5Q8); test: ELISA
# SARS CoV RBD (SARS-CoV) = SARS CoV RBD (SARS-CoV) (UniProt P59594); test: ELISA
# [1] = molecular target: SARS-CoV-2 receptor binding domain (RBD) (SARS-CoV-2) (UniProt P0DTC2); test: ELISA
# [2] = molecular target: SARS-CoV-2 spike S1 (SARS-CoV-2) (UniProt P0DTC2); test: ELISA
# [3] = molecular target: SARS-CoV-2 receptor binding domain (RBD) (SARS-CoV-2) (UniProt P0DTC2); test: ELISA; remark: listed apart in the source
# [4] = molecular target: SARS-CoV-2 spike on GFP reporter pseudotype virus (Wuhan-Hu-1) (SARS-CoV-2) (UniProt P0DTC2); test: cell-based or functional assay
# [5] = molecular target: SARS-CoV-2 receptor binding domain (RBD) (SARS-CoV-2) (UniProt P0DTC2); test: RBD:ACE2 blocking ELISA (RBD coated, ACE2-His)
Substance,EC50 (HCoV-229E S1 (HCoV-229E)),EC50 (HCoV-NL63 S1 (HCoV-NL63)),EC50 (MERS CoV S1 (MERS CoV)),EC50 (SARS CoV RBD (SARS-CoV)),EC50 [1],peak OD signal [1],EC50 [2],peak OD signal [2],EC50 [3],CoV-2 pseudotype neutralization IC50 [4],IC50 [5]
IVIG (Gamunex; Grifols) (antibody),96 µg/mL,140 µg/mL,1330 µg/mL,1280 µg/mL,1270 µg/mL,2.26 OD,1410 µg/mL,1.99 OD,1250 µg/mL,–,–
rCIG (recombinant coronavirus-2 immune globulin; recombinant anti-coronavirus 19 hyperimmune gammaglobulin) (antibody),–,–,–,0.6 µg/mL,0.1 µg/mL,–,0.092 µg/mL,–,–,0.43 µg/mL,2.2 µg/mL
